Source: the nanobody polyreactivity screen of Harvey et al. (2022)

Test: yeast display, Sf9 membrane polyspecificity reagent, FACS + sequencing; frameworks hold sequencing errors
In short: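 Galactose induction of a Saccharomyces cerevisiae BJ5465 synthetic nanobody display library ran 36–48 hours. The cells were then stained for 1 hour at 4 °C with 10% biotinylated, detergent-solubilized Sf9 membrane reagent, pulled down on streptavidin microbeads and FACS-sorted into low and high (top ~1%) gates on expression and reagent-binding fluorescence. Labels for polyreactivity follow the gate of origin.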

Row | Sequence | polyreactivity (PSR sort gate)
1 | QVQLVESGGGLVQAGGSLRLSCAASGSIFRGYAMGWYRQAPGKERDLVAAITSGGSTNYADSVKGRFTISRDNAKNSVYLQMNSLKPEDTAVYYCAKDLALVAPLSDYWGQGTQVTVSS | low polyreactivity
2 | QVQLVESGGGLVQAGGSLRLSCAASGSIFRGYAMGWYRQAPGKERELVAAITFSGGSTYADSVKGRFTISRDNAKNTVYFQMNSLKPEDTAVYDCAAKRTGHNWFTVYPYYSWGQGTQVTVSS | low polyreactivity
3 | QVQLVESGGGLVQAGGSLRLSCAASGSIFRHYAMGWYRQAPGKERELVAAISAIGGSTYADSVKGRFTISRDNAKNTVYLQMNSLKPEDTAVYYCNARSYTSYVYHEAGEFDYWGQGTQVTVSS | low polyreactivity
4 | QVQLVESGGGLVQAGGSLRLSCAASGSIFRINAMGWYRQAPGKERELVAAISWSGGSTYYADSVKGRFTISRDNAKNTVYLQMNSLKPEDTAVYYCAAVVSKSSFDYWGQGTQVTVSS | low polyreactivity
5 | QVQLVESGGGLVQAGGSLRLSCAASGSIFRIYAMGWSRQAPGKERELVAAIDSSGGSTYYADSVKGRFTISRDNAKNTVYLQMNSLKPEDTAVYYCAADFGSKSTPYDYWGQGTQVTVSS | low polyreactivity
6 | QVQLVESGGGLVQAGGSLRLSCAASGSIFRIYAMGWYRQAPGKERELVAGISKSGGSTYYADSVKGRFTISRDNAKNTVYLQMNSLKPEDTAVYYCNARRPSWGLDKYDYWGQGTQVTVSS | low polyreactivity
7 | QVQLVESGGGLVQAGGSLRLSCAASGSIFRKYAMGWYRQAPGKERELVARISSGGRTYYADSVKGRFTISRDNAKNTVYLQMNSLKPEDTAVYFCAAAYYQRGRYSWGQGSQVTVSS | high polyreactivity
8 | QVQLVESGGGLVQAGGSLRLSCAASGSIFRKYAMGWYRQAPGKERELVAVITTDGSTNYADSVKGRFTISRDNAKNTVYLQMNSLKPEDTAVYYCNAVRSSIGTDNDYWGQGTQVTVSS | low polyreactivity
9 | QVQLVESGGGLVQAGGSLRLSCAASGSIFRLYAMGWYRPAPGKERELVAAISRRGGSTNYADSVKGRFTISRDNAKNTVNLQMNSLKPEDTAVYYCNAVSKRSRYDYWGQGTQVTVSS | high polyreactivity
10 | QVQLVESGGGLVQAGGSLRLSCAASGSIFRLYAMGWYRQAPGKEREFVARIRWRGGSTNYADSVKGRFTISRDNAKNTVYLQMNSLKPEDTAVYYCAAKQGTVRAHTYVPWYDYWGQGTQVTVSS | high polyreactivity
11 | QVQLVESGGGLVQAGGSLRLSCAASGSIFRLYAMGWYRQAPGKERELVATITSGGNTYADSVKGRFTISRDNAKNTVYLQMNSLKPEDTAVYYCATTVYAYSYGYEYWGQGTQVTVSS | high polyreactivity
12 | QVQLVESGGGLVQAGGSLRLSCAASGSIFRNNAMGWYRQAPGKERELVASITRRGGSTYYADSVKGRFTISRDNAKNTVYLQMNSLKPEDTAVYYCAATTQHRYKLNYWGQGTQVTVSS | high polyreactivity
13 | QVQLVESGGGLVQAGGSLRLSCAASGSIFRNYAMGWYRQAPGKERELVAAISRRGGSTYYADSVKGRFTISRDNAKNTVYLQMNSLKPEDTAVYYCKKRWSSKTVQYDYWGQGTQVTVSS | high polyreactivity
14 | QVQLVESGGGLVQAGGSLRLSCAASGSIFRNYAMGWYRQAPGKERELVATISWNGGRTHYADSVKGRFTISRDNAKNTVYLQMNSLKPVDTAVYYCNKDAASFRHFYGYGYWGQGTQVTVSS | low polyreactivity
15 | QVQLVESGGGLVQAGGSLRLSCAASGSIFRNYAMGWYRQAPGKERELVAVITYSGGNTYYADSVKGRFTISRDIAKNTVYLQMNSLKPEDSAVYYCAADYLVVAYGYRYLRHYYWGQGTQVTVSS | high polyreactivity
16 | QVQLVESGGGLVQAGGSLRLSCAASGSIFRPYAMGWYRQAPGKERELVATITWRGGSTTYADSVKGRFTISRDNAKNTVYLQMNSLKPEDTAVYYCAADASWELFAWAHYDYWGQGTQVTVSS | low polyreactivity
17 | QVQLVESGGGLVQAGGSLRLSCAASGSIFRPYAMGWYRQAPGTERELVAAITWSGGRTYYADSVKGRFTISRDTAKNTVYLQMNSLKPDDTAVYYCAADDSEGFDYWGQGTQVTVSS | high polyreactivity
18 | QVQLVESGGGLVQAGGSLRLSCAASGSIFRPYVMGWYRQAPGKERELVAAISSRGGDTYYADSVKGRFTISRDNAKNTVYLQMNSLKPEDTAVYYCAAVEFRDSTFVVVSSPTSKSDYWGQGTQVTVSS | low polyreactivity
19 | QVQLVESGGGLVQAGGSLRLSCAASGSIFRRKAMGWYRQAPGKERELVAAIRRGGSTNYADSVKGRFTISRDNAKNTVYLQMNSLKPEDTAVYYCAARGGSSGFYYWGQGTQVTVSS | high polyreactivity
20 | QVQLVESGGGLVQAGGSLRLSCAASGSIFRRNAMGWYRQAPGKERELVAAINSRGGSTYYADSVKGRFTISRDNAKNTVYLQMNSLKPEDTAVYYCATARFLRYDRYDDYWGQGTQVTVSS | low polyreactivity
21 | QVQLVESGGGLVQAGGSLRLSCAASGSIFRRNAMGWYRQAPGKERELVAAISYSGGSTYYADSVKGRFTISRDNAKNTVYLQMNSLKPEDTAVYYCAADLYYGFGGYYYWGQGTQVTVSS | high polyreactivity

Row | Sequence | polyreactivity (PSR sort gate)
22 | QVQLVESGGGLVQAGGSLRLSCAASGSIFRRNAMGWYRQAPGKERELVAGISGGGSTYYADSVKGRFTISRDNAKNTVYLQMNSLKPEDTAVYFCATDKHFRWAGFDYWGQGTQVTVSS | low polyreactivity
23 | QVQLVESGGGLVQAGGSLRLSCAASGSIFRRNTMGWSRQATGKERELVAAITYRGGSTYYADSVKGRFTISRDNAKNTDYLQMNSLKPEESAVYYCARYLWYYRVSKSDSWGQGTQVTVSS | high polyreactivity
24 | QVQLVESGGGLVQAGGSLRLSCAASGSIFRRNVMGWYRQAPGKERELVAAITGSGGSTYYADSVKGRFTISRDNAKNTVYLQMNSLKPEDTAVYYCAKVPYYSRPHDYWGQGTQVTVSS | high polyreactivity
25 | QVQLVESGGGLVQAGGSLRLSCAASGSIFRRYAMGWYRQAPGKERELVASISSRGTRTYYADSVKGRFTISRDTAKNTVYLQMNSLKPEDTAVYYCAASYYTPYDYWGQGTQVTVSS | high polyreactivity
26 | QVQLVESGGGLVQAGGSLRLSCAASGSIFRRYAMGWYRQAPGKERELVAVITTDGSTYYADSVKGRFTISRDNAKNTVYLQMNSLKPEDTAVYYCAADVRHYIWEYYYWGQGTQVTVSS | low polyreactivity
27 | QVQLVESGGGLVQAGGSLRLSCAASGSIFRSNAMGWYRQAPGKERELVAAISSSGGSTYYADSVKGRFTISRDNAKNTVYLQMNSLKPEDTAVYYCNTSVDRGLGYWGQGTQVTVSS | low polyreactivity
28 | QVQLVESGGGLVQAGGSLRLSCAASGSIFRSNTMGWYRQAPGKERELVAGISYSGGSTYADSVKGRFTISRDNAKNTVYLQMNSLKPEDTAVYYCNTVYDPHTGQSDSWGQATQVTVSS | low polyreactivity
29 | QVQLVESGGGLVQAGGSLRLSCAASGSIFRSYAMGWYRQAPGKEREFVAAINSRSGSTYYADSVKGRFTISRDNAKNTVYFQINSLKPEDTAVYYWAVTYYTRGYGHMDYWGQGTQVTVSS | high polyreactivity
30 | QVQLVESGGGLVQAGGSLRLSCAASGSIFRSYAMGWYRQAPGKERELVAGITSSGGSTYADSVKGRFTISRDNAKNTVYLQMNSLKPEDTAVYFCAKPGFEWLLTRLFSVSEYDYWGQGTQVTVSS | low polyreactivity
31 | QVQLVESGGGLVQAGGSLRLSCAASGSIFRSYAMGWYRQAPGKERELVARITYRGGGTYYADSVKGRVTISRDNAKNTVYLQMKSLKPEVTAVYYCAASGAFVRTRVTTADYDYWGQGTQVTVSS | high polyreactivity
32 | QVQLVESGGGLVQAGGSLRLSCAASGSIFRSYAMGWYRQAPGKERELVASISRRGGSTYYADSVKGRFTISRDNAKNSVYLQMNSLKPEDTAVYYCAAVRYNSRVSTTPSEMYYWGQGTQVTVSS | low polyreactivity
33 | QVQLVESGGGLVQAGGSLRLSCAASGSIFRTNAMGWYRQAPGKERELVAAITGSGGSTYYADSVKGRFTISRDNAKNTVYLQMNSLKPVDTAVYYCAADGQLPPRGILASWEFDYWGQGTQVTVSS | low polyreactivity
34 | QVQLVESGGGLVQAGGSLRLSCAASGSIFRTYAMGWYRQAHGKETELVAAITRSGGTTYYADSVKGRFTISRDNAKNTVYLQMNSLKPEDTAVYFCNAQGYWYKGRRRGDYWGQGTQVTVSS | high polyreactivity
35 | QVQLVESGGGLVQAGGSLRLSCAASGSIFRVYAMGRYRQAPGKERELVATISGSAGRTYYADSVKGRFTISRDNAKNTVYLQMNSLKPEDTAVYYCAARWYKEYYWGQGTQVTVSS | high polyreactivity
36 | QVQLVESGGGLVQAGGSLRLSCAASGSIFRVYAMGWYRQAPGKERELVAAISKSGSSTYYADSVKGRFTISRDNAKNTVYLQMNSLKPEDTAVYYCAARRVLGEYGYWGQGTQVTVSS | high polyreactivity
37 | QVQLVESGGGLVQAGGSLRLSCAASGSIFRVYAMGWYRQAPGKERELVAAISWGGGTTYYADSVKGRFTISRDNAKNTVYLQMNSLKPEDTAVYYCNKVGVRSGARSIYVVRRYEYWGQGTQVTVSS | high polyreactivity
38 | QVQLVESGGGLVQAGGSLRLSCAASGSIFRVYAMGWYRQAPGKERELVAAISWGRGTTYYADSVKGRFTISRDNAKNTVYLQMTSLKPEDTAVYYCAAGGVGAYDYWGQGTQVTVSS | high polyreactivity
39 | QVQLVESGGGLVQAGGSLRLSCAASGSIFRWYAMGWYRKAPGKERELVARITVSGGSTYYADSVKGRFTISRDNAKNTVYLEMNSLKPEDTAVYYCNARAHYTPDGGGDYWGQGTQVTVSS | high polyreactivity
40 | QVQLVESGGGLVQAGGSLRLSCAASGSIFRWYAMGWYRQAPGKEREFVAAISWSGTSTYYADSVKGRFTISRDNAKNTVYLQMNSLKPEDTAVYYCNALLPSSRAPDYGYWGQGTQVTVSS | high polyreactivity
41 | QVQLVESGGGLVQAGGSLRLSCAASGSIFRWYAMGWYRQAPGKERELVAGISSTGGSTYYADSVKGRFTISRDNAKNTVYLQMNSLKPEDTAVLYCAVVSYPSAFRRYNYWGQGTQVTVSS | high polyreactivity
